The text below walks through data of PMC12418388, “DDX6 interacts with DDX3X to repress translation in microRNA-mediated silencing” (Nucleic Acids Research, 2025).

The experiment addresses T1, GST-DDX6 (wild type), recombinant (UniProt P54823 1-483).
T1 construct: DDX6 (DEAD-box helicase 6); Cloned in pGEX-KG; also called wild-type DDX6; source: E. coli BL21(DE3), purified (Glutathione Sepharose 4B)
T1 sequence (looked up): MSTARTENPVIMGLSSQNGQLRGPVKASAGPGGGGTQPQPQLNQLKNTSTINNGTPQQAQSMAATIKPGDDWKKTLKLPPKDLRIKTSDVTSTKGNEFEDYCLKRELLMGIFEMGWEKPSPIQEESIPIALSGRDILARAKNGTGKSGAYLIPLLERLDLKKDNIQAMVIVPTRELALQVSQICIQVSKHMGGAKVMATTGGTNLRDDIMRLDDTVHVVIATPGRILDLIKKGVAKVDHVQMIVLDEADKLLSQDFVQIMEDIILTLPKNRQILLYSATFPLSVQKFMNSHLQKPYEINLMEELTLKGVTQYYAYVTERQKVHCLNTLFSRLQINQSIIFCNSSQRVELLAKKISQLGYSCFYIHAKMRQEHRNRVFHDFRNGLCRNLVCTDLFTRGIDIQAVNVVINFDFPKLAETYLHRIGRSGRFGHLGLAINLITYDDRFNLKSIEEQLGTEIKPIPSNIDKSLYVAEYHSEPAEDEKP
Briefly: BLI; BLItz; 6xHis-MBP-DDX3X^166-590 loaded on Ni-NTA biosensors; GST-DDX6 or GST-DDX6^Mut6 at 125, 250 and 500 nM; 20 mM Tris-HCl pH 8.0, 150 mM KCl, 0.02% Tween 20, DTT, 1 mg/ml BSA; global fit to a 1:1 model. The settings on record: both partners purified.

B1: 6xHis-MBP-DDX3X^166-590 (domain or fragment, UniProt Q62167 166-590, looked up)
chain: IPVEATGNNCPPHIESFSDVEMGEIIMGNIELTRYTRPTPVQKHAIPIIKEKRDLMACAQTGSGKTAAFLLPILSQIYADGPGEALRAMKENGRYGRRKQYPISLVLAPTRELAVQIYEEARKFSYRSRVRPCVVYGGAEIGQQIRDLERGCHLLVATPGRLVDMMERGKIGLDFCKYLVLDEADRMLDMGFEPQIRRIVEQDTMPPKGVRHTMMFSATFPKEIQMLARDFLDEYIFLAVGRVGSTSENITQKVVWVEEIDKRSFLLDLLNATGKDSLTLVFVETKKGADSLEDFLYHEGYACTSIHGDRSQRDREEALHQFRSGKSPILVATAVAARGLDISNVKHVINFDLPSDIEEYVHRIGRTGRVGNLGLATSFFNERNINITKDLLDLLVEAKQEVPSWLENMAFEHHYKGSSRGRSKS
notes: Cloned in pMCSG9; source: E. coli BL21(DE3), purified (Ni-NTA)
Usually Kd stands for the constant that tells how readily two partners part at equilibrium. As for B1, the Kd worked out at 389 nM.
